In paper doi:10.1101/2023.09.28.559889 (bioRxiv, 2023):

Assays:
[1] = target: NatR antitoxin (PA1029), co-expressed with His-tagged NatT in E. coli (P. aeruginosa); test: crystal structure
[2] = target: NatT toxin (PA1030), His-tagged, co-expressed with NatR in E. coli (P. aeruginosa) (UniProt Q9I4U4); test: mass photometry
crystal structure = target: the molecule itself; test: crystal structure

Molecule	stoichiometry N [1]	stoichiometry N [2]	stoichiometry N (crystal structure)
NatR antitoxin (PA1029), co-expressed with His-tagged NatT in E. coli (natural protein)	2	2	–
NatT toxin (PA1030), His-tagged, co-expressed with NatR in E. coli (enzyme) SEIWRQCKGERHIRPLQGRLVRLVESQEQVATLQLVDTLEEQALLEELLESSKPPVPADAEPLHYLLKTPFRYPPLRWGSRFGRRHEPSLFYAALKLETAMAESAYYRCVLWSGMVVPPPSGRILSEHASFEAGWKVERGIRLQAPPFSDHEAALTDIADYRAPQELGSAMRSAGVQAFEYRSARCPERGCNVALFTPAAFTEKRPRNLTPWLCETTAGYVAFKPAHVPGSPKIFSWELFLVDGKLPHPA	–	–	2
